Biological target: T1, Scrambled Y42,52,63(SO3) PSGL-1(42-62) biotin peptide
T1 sequence (peptide, sulfotyrosine at peptide positions 1, 11 and 22; C-terminal Lys-biotin): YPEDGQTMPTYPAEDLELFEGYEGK
Experiment: ELISA, immobilized biotin peptide

B1: 09B09 (antibody, IgG4, V domains shown)
VH: EVKLLESGGGLVQPGGSLRLSCAASGITFSTYAMMWVRQAPGKGLEWVSGISGSGASRYYADSVKGRFTISRDNSKNMLYLQMNSLRAEDTAVYYCAKKVLGRRKQYFDDWGQGTLVTVSS
VL: DIVMTQSPLSLPVTPGEPASISCRSSQSLLHSNGYNYLDWYLQRPGQSPQLLIYLGSHRASGVPDRFSGSGSGTEHTLKITTVAAEDVGVYYCMQALQSPPTFGQGTRLDIK
A450nm, 20 nM mAb: 0.37 A450nm

B2: 01A04 (antibody, IgG4, V domains shown)
VH: EVQLVQSGAEVKKPGASVKVSCKASGYTFTSYYIHWVRQAPGQGLEWMGIIRPSGGSTSYAQKFQGRVTMTRDTSTSTVYMELSSLRSEDTAMYYCARVGVGSFDYWGQGTLVTVSS
VL: DIQMTQSPSTLSASVGDRVTITCRASQSVSNWLAWYQQKPGKAPKLLIYKASSLESGVPSRFSGSGSGTEFTLTISSLQPDDFATYYCQWFRTFGPGTKVDIK
A450nm, 20 nM mAb: 0.13 A450nm

B3: 09D11 (antibody, IgG4, V domains shown)
VH: QVQLVESGGGFIQPGGSLRLSCAASGLTFSNYAMTWVRQAPGKGLEWVSTISGGGGNTYYTDSVKGRFTISRDNSKNTLYLQMNSLKAEDTAVYRCAKGLAAALFDYWGQGTLVTVSS
VL: DIVLTQSPDSLPVTPGEPASISCRSSRSLLHSNGHNFLAWYLQKPGQSPHLLIYLGSNRASGVPDRFSGSGSGTDFTLKISRVEAEDVGIYYCMQALQTPITFGQGTRLDIK
A450nm, 20 nM mAb: 0.09 A450nm

B4: 03D01 (antibody, IgG4, V domains shown)
VH: EVQLVQSGGGLVQPGGSLRLSCAATGFTVSRNYMTWVREAPGKGLEWVAGIYKSGTTSYIESVKGRFTISRDNSKNTLYLEMSRLRAEDTAVYYCAKSTSTWGQGTQVTVSS
VL: DVVMTQSPVSLPVTLGQPASISCRSSRNLLYSNGNTYLNWFHQRPGQSPRRLIYKVSNQDSGVPDRFSGSGSGTDFTLKISRVEAEDVGVYYCMQGTHWPTTFGQGTRLEIK
A450nm, 20 nM mAb: 0.12 A450nm

— patent US20220396632A1
